One molecule from paper doi:10.1101/2020.05.05.065912 can be followed below.

The Kd is the equilibrium constant for the complex coming apart. A low value points to tighter binding.

In test [1] the target is BRS-Myosin VI Tail-mRFP (UniProt Q9UM54). Description: FRET or BRET. For orientation: Bioluminescence resonance energy transfer reports proximity on the nanometre scale.
Test [2] shares this target. The experiment in a line: FRET or BRET. The source holds these as a separate data set.

Like-named read-outs stand apart in the source and are kept apart here.

Chain of UniProt Q9UM54 (Q9UM54 whole entry): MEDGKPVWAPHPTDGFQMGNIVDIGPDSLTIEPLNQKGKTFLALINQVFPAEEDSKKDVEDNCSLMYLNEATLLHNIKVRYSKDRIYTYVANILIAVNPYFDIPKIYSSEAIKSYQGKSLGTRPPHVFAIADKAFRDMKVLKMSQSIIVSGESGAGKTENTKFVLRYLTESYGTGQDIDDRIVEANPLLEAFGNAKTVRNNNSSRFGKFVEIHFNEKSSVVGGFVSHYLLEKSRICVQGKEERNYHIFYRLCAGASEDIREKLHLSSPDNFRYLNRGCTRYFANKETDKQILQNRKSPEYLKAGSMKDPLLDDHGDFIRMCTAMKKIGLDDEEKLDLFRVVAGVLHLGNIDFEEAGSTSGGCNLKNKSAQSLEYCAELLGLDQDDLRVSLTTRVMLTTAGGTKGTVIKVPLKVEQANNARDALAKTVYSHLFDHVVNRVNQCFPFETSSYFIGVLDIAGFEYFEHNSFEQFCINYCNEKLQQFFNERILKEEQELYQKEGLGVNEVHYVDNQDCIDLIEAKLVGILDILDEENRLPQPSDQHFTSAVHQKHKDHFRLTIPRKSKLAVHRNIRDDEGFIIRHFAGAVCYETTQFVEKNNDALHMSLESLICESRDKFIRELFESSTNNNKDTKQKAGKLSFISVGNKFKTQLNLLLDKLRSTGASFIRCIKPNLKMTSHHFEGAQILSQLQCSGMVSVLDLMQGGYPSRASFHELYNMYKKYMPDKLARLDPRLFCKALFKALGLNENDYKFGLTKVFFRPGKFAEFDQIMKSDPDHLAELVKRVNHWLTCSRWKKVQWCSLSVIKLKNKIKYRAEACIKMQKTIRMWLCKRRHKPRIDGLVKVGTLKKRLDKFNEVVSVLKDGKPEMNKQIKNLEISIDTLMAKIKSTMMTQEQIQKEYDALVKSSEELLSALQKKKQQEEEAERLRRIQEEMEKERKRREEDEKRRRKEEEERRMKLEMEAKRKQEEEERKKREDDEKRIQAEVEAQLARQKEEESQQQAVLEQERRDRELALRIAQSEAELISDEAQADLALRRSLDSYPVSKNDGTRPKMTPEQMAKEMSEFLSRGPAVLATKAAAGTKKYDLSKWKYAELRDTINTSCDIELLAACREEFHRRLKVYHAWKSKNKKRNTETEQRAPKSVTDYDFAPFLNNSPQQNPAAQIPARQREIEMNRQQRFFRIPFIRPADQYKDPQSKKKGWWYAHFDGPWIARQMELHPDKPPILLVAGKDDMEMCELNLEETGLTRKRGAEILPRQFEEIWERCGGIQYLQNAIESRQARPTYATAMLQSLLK

B1: GFP-NDP52 (natural protein)
chain: MEETIKDPPTSAVLLDHCHFSQVIFNSVEKFYIPGGDVTCHYTFTQHFIPRRKDWIGIFRVGWKTTREYYTFMWVTLPIDLNNKSAKQQEVQFKAYYLPKDDEYYQFCYVDEDGVVRGASIPFQFRPENEEDILVVTTQGEVEEIEQHNKELCKENQELKDSCISLQKQNSDMQAELQKKQEELETLQSINKKLELKVKEQKDYWETELLQLKEQNQKMSSENEKMGIRVDQLQAQLSTQEKEMEKLVQGDQDKTEQLEQLKKENDHLFLSLTEQRKDQKKLEQTVEQMKQNETTAMKKQQELMDENFDLSKRLSENEIICNALQRQKERLEGENDLLKRENSRLLSYMGLDFNSLPYQVPTSDEGGARQNPGLAYGNPYSGIQESSSPSPLSIKKCPICKADDICDHTLEQQQMQPLCFNCPICDKIFPATEKQIFEDHVFCHSL
Consider B1, for which the Kd turned out to be 3900 nM with BRS-Myosin VI Tail-mRFP [1] and 1100 nM with BRS-Myosin VI Tail-mRFP [2].
